According to the nanobody polyreactivity screen of Harvey et al. (2022):

Assay: yeast display, Sf9 membrane polyspecificity reagent, FACS + sequencing; frameworks hold sequencing errors
Outline: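 After 36–48 hours of galactose induction, yeast (Saccharomyces cerevisiae BJ5465) displaying a synthetic nanobody library were stained at 4 °C for 1 hour with 10% biotinylated, detergent-solubilized Sf9 membrane reagent. Streptavidin microbeads enriched the stained cells before FACS sorting into low and high (top ~1%) gates on anti-HA and streptavidin fluorescence. Each clone's polyreactivity label reflects its gate of origin.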

Sequence	polyreactivity (PSR sort gate)
QVQLVESGGGLVQAGGSLRLSCAASGFTFTGNAMGWYRPAPGKERELVAAISRSGGSTFYADSVKGRFTISRDNAKNTVYLQMNSLKPEDTAVYYCAARRRTLNYLYDYWGQGTQVTVSS	high polyreactivity
QVQLVESGGGLVQAGGSLRLSCAASGRIFYYYDMGWYRQAPGKERELVAGINDDSSTYYADSVKGRFTISRDNAKNTVYLQMNSLKPEDTAVYYCNAGPSWYPSWYYYWGQGTQVTVSS	low polyreactivity
QVQLQESGGGLVQAGGSLRPSCAASGSISDGVPMGWYRQAPGEQRELVATTVLGATTNYADSVKGRFTISRGNAKNTVYLLMNSLKPEETAVYYCAARLRYDKGFSYWGQGTQVTVSS	low polyreactivity
QVQLVESGGGLVQAGGSLRLSCAASGRTFARNAMGWYRHAPGKERELVAAISGSGGITYYADSVKGRFTISRDNAKNTVYLQMNSLKPEDTAVYYCNAGNNVVVDYDYWGQGTQVTVSS	low polyreactivity
QVQLVESGGGLVQAGGSLRLSCAASGSIFTFYTMGWYRQAPGKERELVAAISQTGGRTYYADSVKGRFTISRDTAKNTVYLQMNSLKPEDTAVYYCDADYYYDISDWVYEYYYWGQGTQVTVSS	high polyreactivity
QVQLVESGGGLVQAGGSLRLSCAASGRIITGYAMGWYRQAPGKERELVAAISRGGSTNYADSVKGRFTISRDNAKNTVYLQMNSLKPEDTAVYYCAAGVHWDRGDYWGQGTQVTVSS	low polyreactivity
QVQLVDSAGGLVQAGGSLSLSCAASGFIFGRYAMGWYRQAPGKERELVAVITWSGGRTYYADSVKGRFTISRDNAKNTVYLQMNSLKPEDTAVYYCAADRYPYHYGYDYWGQGTQVTVSS	high polyreactivity
QVQLLESGGGLVQAGGSLRLSCAASGSTFYINTMGWSRQAPGKERELVAAISWTGGRTYYADSVKGRFTISRDNAKNTVYLQMHSLKPEDTAVYYCAAYYNIPDRRRVGYDYWGQGTQVTVSS	high polyreactivity
QVQLVESGGGLVQAGGSLRLSCAASGSIFYTNAMGWYRQAPGKERELVAAITNGSSTNYADSVKGRFTISRDNAKNTVYLQMNSLNPEDTAVYYCAKYFGNYSIYDYWGQGTQVTVSS	low polyreactivity
QVQLVESGGGLVQAGGSLRLSCAASGGIFAPNAMGWYRQAPGKERELVAAISTGGGSTRYADSVKGRFTISRDNAKNTVYLQMNSLKPEDTAVYYCAATRVGVRRMDYWGQGTQVTVSS	low polyreactivity
QVQLVESGGGLVQAGGSLRLSCAASGSTLRPYGMGWYRQATGKERELVPTIRSSSGRTYYADSVKGRFTISRDNAKNTVYLLMNSLKPDDTAVYYCNAKYVWYTQRDAYIYDYWGQGTQVTVSS	high polyreactivity
QVQLVESGGGLVQAGGSLRLSCAASGFIFKWNAMGWYRQAPGKERELVAAITSGGGTYYADSVKGRFTISRDNAKNTVYLQMNSLKPEDTAVYYCAGYGYWGQGTQVTVSS	high polyreactivity
QVQLVESGGGLVQAGGSLRLSCAASGNIFRVYDMGWYRQAPGKERELVPVIRWSSGRTYYADSVKGRFTISRDNAKNTVYLQMNSLKPEDTAVYYCATKLWRVPRNSHYDSYEYWGQGTQVTVSS	high polyreactivity
QVQLVESGGGLVQAGGSLRLSCAASGRIFLSYTMGSYRQAPGKERELVAAISRGGRTYYADSVKGRFTISLDNAKNTVYLQMNSLKPEDTAVYYCAKKYGRYGSLRGRTIDDYWGQGTEVTVSS	low polyreactivity
QVQLVESGGGLVQAGGSLRLSCAASGSIFYHYAMGWYIQAPGKERELVAAISWRGASTYYADSVKGRFTISRDNAKNTVYLQMNSLKPEDTAVYYCARLSSSHPLYRDDYWGQGTQVTVSS	high polyreactivity
QVQLVESGGGLVQAGGSLRLSCAASGGIFFRNDMGWYRQAPGKERELVAAISSNGGSTYYADSVKGRFTISRDNAKNTVYLQMNSLKPEDTAVYYCNTGVYSSGGPLDYWGQGTQVTVSS	low polyreactivity
QVQLLESGGGLVQAGGSLRLSCAASGRIFSFYTMGWYRQAPGKERELVAAITWRGGSTYYADSVKGRFTISRDNAKNTVYLQMNSLKPEDTAVYYCAAEVYGAVYDYWGQGTQVTVSS	low polyreactivity
QVQLVESGGGLVQAGGSLRLSCAASGRTFYKNAMGWYRQATGKERELVARISRGGSTNYADSVKGRFTISRDNAKNTVYLQMNSLKPEDTAVYYCAKEYGTHGKTYDYWGQGTQVTVSS	high polyreactivity
QVQLVESGGGLVQAGGSLRLSCAASGYTFVVYAMGWYRPAPGKERELVAAINKSGGSTYYADSVKGRFTISRDNAKNTVYLQMNSLKPEDTAVYYCAAVVWILYSSSRGDYWGQGTQVTVSS	low polyreactivity
QVELVASGGGLVQAGGSLRIRCAASGGIFDGNAKGWYRQAPGKEREMVAAISSGGITKYAASVKGRFTISRDNAQYTVYLQMNSLKPEDSAVYYCAASWDRYRFIRNDYWGQGTQVTVSS	high polyreactivity
QVQLVESGGGLVQAGGSLRLSCAASGSTFHYYAMGWYRQAPGKERELVATITWRGGFTYYADSVKGRFTISRDNAKNTVYLQMNSLKPEDTAGYYCTDYSVRRYRDPRLYYWGQGTQVTVSS	high polyreactivity
QVQLVESGGGLVQAGGSLRFSCAASGGTFYVYAMGGYRQATGKERELVAAISTSGGSTYYADSVKGRFTISRDNAKNTVYLQMNSLKPEDTAVYYCAARRVSFSGHPRYGYWGQGTQVTVSS	high polyreactivity

Sequence	polyreactivity (PSR sort gate)
QVQLVESGGGLVQAGGSLRLSCAASGYTFKSYVMGWYRQAPGKERELVAAITSIGGSTYYADSVKGRFTISRDNAKNTVYLQMNRLKPEDTAVYYCAARSFRFYPRMHDWGQGTQVTVSS	high polyreactivity
QVQLVESGGGLVQAGGSLRLSCAASGRIIGKNVMGWYRQAPGKERELVAAISKSGGSTYYADSVKGRFTISRDNAKNTVYLQMNSLKPEDTAVYYCAAKYYYHWHRQGYDYWGQGTQVTVSS	high polyreactivity
QVQLVESGGGLVQAGGSLRLSCAASGIIFRRYAMGWYRQAPGKERELVAAITGSGGSTYYADSVKGRFTISRDNAKNTVYLQMNSLKPEDTAVYYCAAKGYPSRYSYGWYNYWGQGTQVTVSS	high polyreactivity
QVQLVESGGGLVQAGGSLRLSCAASGGTFSPNTMGWYRQAPGKERELVAAISSSGSTSYADSVKGRFTISRDNAKNTVYLQMNSLKPEDTAVYYCNADDTISYYASGFDNYHYWGQGTQVTVSS	low polyreactivity
QVQLVESGGGLVQAGGSLRLSCAASGIIFRRYAMGWYSQAPVKERELVAAITGSGGSPYYADSVKGRFTISRDNAKNTVYLQMNSLKPEDTAVYYCAAQSVLRFASSRYNSWGQGTQVTVSS	high polyreactivity
QVQLVESGGGLVQAGGSLRLSCAASGRIFSSYVMGWYRQAPGKERELVAAIRWSGGSTYYADSVKGRFTISRDNAKNTVYLQMNSLKPEDTAVYYCAARHVLYGYYLYDYWGQGTQVTVSS	high polyreactivity
QVQLVESGGGLVQAGGSLRLSCAASGFIFRYYAMGWYRQAPGKERELVAAISNNAGRTYYADSVKGRFTISRDNAKNTVYLQMNSLKPEDTAVYYCAARVWTGRKYDYWGQGTQVTVSS	high polyreactivity
QVQLVESGGGLVQAGGSLRLSCAAYGITFTPNAMGWYRQAPGKEREFVAAITYSGGSTYYADSVKGRFTISRDNAKNTVYLQMNSLKPEDTAVYYCAAVYYLLYYEAYYYWGQGTQVTVSS	low polyreactivity
QVQLVESGGGLVQAGGSLRLSCAASGSTFDGYAMGWYRQAPGKERELVASISWDDVRTYYADSVKGRFTISRDNAKNTVYLQMNSLKPEDTAVYDCAKGDIEYFWSRIYGYWGQGTQVTVSS	low polyreactivity
QVQLVESGGGLVQAGGSLRLSCAASGYIFKKYAMGWYRQAPGKEREFVAAISISGGRTYYADSVKGRFTISRDNAKNTVYLQMNSLKPEDTAVYYCNKVHYGRRHSYSGAIYGEDYWGQGTQVTVSS	high polyreactivity
QVQLVESGGGLVQAGGSLRLSCAASGSIFSYNAMGWYRQAPGKERELFAAITWSGGSTYYADSVKGRFTISRDNAKNTVYLQMNSLKPEDTAVYYCAAKGGYSTGRPTYTKFNYWGQGTQVTVSS	high polyreactivity
QVQLVESGGGLVQAGGSLRLSCAASGSTFGYNAMGCYRQAPGKERELVAAISRSGGRTYYADSVKGRFTISRDNAKNTVYLQMNSLIPEDTAVYYCATYYTNKVPARYYWGQGTQVTVSS	high polyreactivity
QVQLVESGGRLVQAGGSLRLSCAASGRTSVVHAMGWYRTAPGKERELVAAITSGGSTHYPDSVKGRFTISRDNAKNTVYLQMNSLKPEDTAVYYCNARDRRRTNLQDYWGQGTQVTVSS	low polyreactivity
QVQLVESGGGLVQAGGSLRLSCAASGSTFRGYAMGWYRQAPGKERELVAAITSSGGSTYYADSVKGRFTISRDNAKNTVYLQMNSLKPEDTAVYYCAAEGGYWYTITYSYWLDYWGQGTQVTVSS	low polyreactivity
QVQLVESGGGLVQAGGSLRLSCAASGIIFPQNAMGWSRQAPGKERELVAAISKSGGRTYYADSVKGRFTISRDNAKNTVYVQMNSLKPEDSAVYYCAKVPYAYSRDRSAEDSWGQGTQVTVSS	high polyreactivity
QVQLVESGGGLVQAGGSLRLSCAASGSISPYNAMGWYRQAPGKERELVAAISSGGRTYYADSVKGRFTISRDNAKNTVYLQMNSLKPEDTAVYYCARGYWRVYGYSFWYTPEVGYWGQGTQVTVSS	high polyreactivity
QFQLVESVGGLVQAGGSLRLSCAASGYIFRHYAMGWYRQAPGKERELVAAISGRGGSTYYADSVKGRFTISRDNAKNTVYLQMNSLKPEDTAVYYCAKDRKAVGDFYYWGQGTQVTVSS	high polyreactivity
QVQLVESGGGLVQAGGSLRLSCAASGSTFDQNVMGWYRQAPGKERELVATINFSGDSTYYADSVKGRFTISRDNAKNTVYLQMNSLKPEDTAVYYCAVDWGEYIDTSVKRDISYYWGQGTQVTVSS	low polyreactivity
QVQLVESGGGLVQAGGSLRLSCAASGFIFPVNAMGWSRQAPGKERELVAGITSSGGSTYYADSVKGRFTISRDNAKNTVYLQMNSRKPEDTAVYYCNAYIDALPVSYHFDYWGQGTQLTVSS	low polyreactivity
QVQLVESGGGLVQAVGSLRLSCAASVIIFDVNAMGWYRQAPAKERELVATISKRGGTTYYADSVKGRFTISRDNAKNTVYLQMYSLKPEDTAVYYCAARHQTLRSYRYDYWGQGTQVTVSS	low polyreactivity
QVQLVESGGGLVQAGGSLSLSCAASGLTSSENAMGWYRQAHGKERELVAAINVSGGSTYYADSVKGRFTISRDNAKNTVYLQMNSLKPEDTAVYYCAADNPYAYARSSWYEYNYWGQGTQVTVSS	high polyreactivity
